Assay results from the supplement of paper PMC12042874.
± gives the uncertainty stated by the source.

assay: amyloid nucleation score (Sup35N fusion, yeast selection) (log enrichment); library NNK3; higher = more nucleation; inactive = no reads after selection
How it was run: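 The nucleation score is a DiMSum log enrichment of output over input reads, centred on the mode score of non-aggregating sequences. Sequences under 100 input reads were excluded, and reads came from Illumina sequencing of plasmid inserts. Psi-negative yeast expressing Sup35N fused to peptides of 20 random codons were induced with 100 μM copper sulfate for 24 hours and grown 7 days at 30°C on medium lacking adenine and uracil. Random libraries had three technical output replicates.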

Substance	amyloid nucleation score
NKDWREVCSKLNLGSCPTPE	inactive
HSFIDERWSLYYERVLVYTG	inactive
EDNRTTVVFTGEC	inactive
YNDFCN	0.194 ± 0.27
IFVWYMNVSCGMVDRYGLPM	inactive
SYSGIYILSSFAATSSFILS	0.46 ± 0.2
VEHDNKGISQAAVMFG	inactive
WLGMCPLLTVVLTGIFLTPF	0.487 ± 0.2
NIYYLCSFLSWLTMG	2.36 ± 0.049
DLFKMRLGTERGY	inactive
FHSAL	inactive
LADLNTTNIVIGQCCFFYRL	2.55 ± 0.076
HGPAMTSRSRNTSVLVLVSP	inactive
RAWNWWGFVTFPERLMCSHT	inactive
STLRSLCRPSGFGVAI	inactive
VYFSDVV	inactive
IRDLSLNQSGYFTFVTCWRC	2.73 ± 0.067
PVRSR	inactive
TIQCMCFCSNRVLTIIVQLS	-0.61 ± 0.75
DRFEMPDVLWCRDYCNIARS	inactive
AGLLDMARSVDCSGLGYGFF	-0.82 ± 1
RLTYIVCSA	inactive
SSKMLTLMWMVGPPLSTDGS	inactive
AGKDSPGTDHGGGKNNVRV	inactive

Substance	amyloid nucleation score
IHLTCLWVYQDLLV	inactive
YGHFPQCVPLIFCYRRSMVT	inactive
CDVSGSCPGRSPARLKEGSR	inactive
IMVKLSIIIVYC	1.76 ± 0.083
NINIY	-0.302 ± 0.96
SYYTYVFTIVTPRKTNLWSG	0.64 ± 0.28
STLRWLR	inactive
MKVEVYPSTVFMRYRVNWVI	inactive
IAHWAWGMELIIYQIPNHFR	0.407 ± 0.25
KSVQKMAWTVRCELYLHTG	inactive
YCTRGNSTNLEYELECLVIF	inactive
LSSFRPSYEYYLRDISAMSW	inactive
VNLITREHLKKGSMNNFIAN	inactive
IADFNSL	inactive
TRLCFIAVPLSFFMVWDTSR	inactive
MWAGCGVSGPALGHAGSARR	inactive
CFRPPFTFRYFALARGKAAD	inactive
VVILWGR	inactive
LNNTQFL	inactive
PAPMSVFRHVNFFVKFSPSS	inactive
YISFVFDRYNKSYGTARICK	-0.506 ± 0.82
VEHFNGHTRTVGCLFKRDLR	inactive
LSSIWKGLRGLFIFFWHIKK	inactive
TENISVCGYYYRMIALDMFW	inactive

Substance	amyloid nucleation score
FFYSVLCLLRAVLVDSNLGW	inactive
MCQNLRMYMIYHRQGKWMKS	inactive
RGSDIMAFAVDYTDNKSECS	inactive
TTTFKLGISKSLDVSTRLRG	0.31 ± 0.14
LILVCSSGRAIMKRAPCKFR	inactive
SRVRNDWYRVKVMGANVVGY	inactive
RRTPLWSPMVRNLSYALLAG	inactive
LARWNVIWFFNGNCIFEESV	1.31 ± 0.074
HRLVRLSVRMSRRTYS	inactive
GYDVRL	inactive
LYNYAVSISTLIH	0.971 ± 0.2
SMFRSRFLKVRDVSTTSQCA	inactive
LRMVTHMSVYDRNHLSW	inactive
TAWGMLGGPE	inactive
CLRDCKTPDSATHTRAINGL	inactive
GKYSYLDIPTTIVYMFIH	1.44 ± 0.14
VRSARRQAGELEGFYCLYQV	inactive
IEKASACNG	inactive
FLLSVNQASNYGTWILWFYR	inactive
YPYSSVTRNILCVENRCTGW	inactive
FYVLHPCAPFVFPHQTTNIT	inactive
CLPSFRGFTTNIMGLIRSRV	inactive
SNAMMGSRRIGLMGYAVRVL	inactive
KFGSLWRSNESDSSNSALRY	inactive

Substance	amyloid nucleation score
QCHSLYSWNDGWC	inactive
KRANSE	1.11 ± 0.1
LAWCVLSKPRDRYSGVTSTL	inactive
LPTSFTSFNLKSLASMT	inactive
DVGSR	inactive
CYLGSHSFSAYCGQLFIFSV	inactive
EDVYFSYGDVWMVIGALTTV	inactive
YAEPYRRDVPGSCEYLTMM	inactive
IVRYTHSSLVYFTDEMMVNR	1.19 ± 0.12
AIPSMSSRTLNQVSPIDPDL	0.706 ± 0.17
ECTSF	inactive
NSTYSSF	inactive
ESPAASMVLHRGRLVVCSLS	inactive
RAVHR	inactive
CPLVFDMILVSLCSNGAGLI	inactive
NLGNVHVLLDQSEPVHCILL	inactive
LAVVNYQSFTNVEWVGNRIK	inactive
FECRQ	inactive
YLLLDEVRSKYCWGISCTGY	inactive
MFRVSWFLISGLLRSVAWNG	inactive
ELCVRQLCY	inactive
KRCIYKSNGI	inactive
HQTLKSQD	inactive
TIWSCMCVMWITRPSNTRRP	inactive

Substance	amyloid nucleation score
STWMNTDYGDTTV	-0.277 ± 0.96
AVISNRFYEEKLYDATYLRL	inactive
SMNPIECYNAHLVSSGFWVQ	inactive
TIWSITFLGCKLELTEKCLV	0.979 ± 0.24
TVMVKSSYGLNCFGRSF	0.743 ± 0.13
FRSVVWFCGRVLQTGCCGLN	inactive
YSPAK	inactive
LSLRCEFSSASSGCTSGQRR	inactive
LIMLFHSWMSTRWYGVVSNS	inactive
VVLQDPGSLYEPRSHGTWFT	inactive
VDHGRD	inactive
RWRFRRWVS	inactive
CFSLGVCGQAKVNVWNNIYV	2.71 ± 0.054
CDLMAKGSCIEQPQPSVAGK	inactive
SCALDLIDLQKGVTSHKEFI	inactive
LRIERQSAFSCILDM	inactive
FTWRRFRVKSYYDYFASLGV	inactive
LVFKYSKAVSTYWYEGDQVT	inactive
SNDYCRGCVCLDSGMNVCVA	inactive
VHELIDHKMKMIGLVFGLSI	inactive
VRTRWFIAPVCVARGSLCLV	inactive
